{
  "source": "patent US8772012B2",
  "about": "“Xylose isomerase and use thereof” (Kabushiki Kaisha Toyota Chuo Kenkyusho, priority 2009, dated 2014)",
  "system": "OC1OC[C@@H](O)[C@H](O)[C@H]1O",
  "assay": "cells, lysate or membranes named",
  "details": "other: xylose 5 to 250 mM, pH 7.5, 30° C., 10 mM MgCl2, crude yeast extract, Hanes-Woolf plot",
  "note": "Values joined by “and” are separate entries in the source; they are usually repeats but may differ in a detail not shown here. Equal values may be shown once.",
  "data": [
    {"substance": "Piromyces sp. E2 xylose isomerase PiXI-O (PiXI; codon optimized gene PiXI-O, SEQ ID NO: 46), expressed in yeast (Piromyces sp. E2)", "values": [
      {"measurement": "Km", "result": "40 mM and 39.87 ± 7.43 mM"}
    ]}
  ]
}
